B1: Syndecan-1 (Homo sapiens), P18827 (parent)
chain: MRRAALWLWLCALALSLQPALPQIVATNLPPEDQDGSGDDSDNFSGSGAGALQDITLSQQTPSTWKDTQLLTAIPTSPEPTGLEATAASTSTLPAGEGPKEGEAVVLPEVEPGLTAREQEATPRPRETTQLPTTHLASTTTATTAQEPATSHPHRDMQPGHHETSTPAGPSQADLHTPHTEDGGPSATERAAEDGASSQLPAAEGSGEQDFTFETSGENTAVVAVEPDRRNQSPVDQGATGASQGLLDRKEVLGGVIAGGLVGLIFAVCLVGFMLYRMKKKDEGSYSLEEPKQANGGAYQKPTKQEEFYA
B2: Rho guanine nucleotide exchange factor TIAM1 (Homo sapiens), Q13009 (parent)
chain: MGNAESQHVEHEFYGEKHASLGRKHTSRSLRLSHKTRRTRHASSGKVIHRNSEVSTRSSSTPSIPQSLAENGLEPFSQDGTLEDFGSPIWVDRVDMGLRPVSYTDSSVTPSVDSSIVLTAASVQSMPDTEESRLYGDDATYLAEGGRRQHSYTSNGPTFMETASFKKKRSKSADIWREDSLEFSLSDLSQEHLTSNEEILGSAEEKDCEEARGMETRASPRQLSTCQRANSLGDLYAQKNSGVTANGGPGSKFAGYCRNLVSDIPNLANHKMPPAAAEETPPYSNYNTLPCRKSHCLSEGATNPQISHSNSMQGRRAKTTQDVNAGEGSEFADSGIEGATTDTDLLSRRSNATNSSYSPTTGRAFVGSDSGSSSTGDAARQGVYENFRRELEMSTTNSESLEEAGSAHSDEQSSGTLSSPGQSDILLTAAQGTVRKAGALAVKNFLVHKKNKKVESATRRKWKHYWVSLKGCTLFFYESDGRSGIDHNSIPKHAVWVENSIVQAVPEHPKKDFVFCLSNSLGDAFLFQTTSQTELENWITAIHSACATAVARHHHKEDTLRLLKSEIKKLEQKIDMDEKMKKMGEMQLSSVTDSKKKKTILDQIFVWEQNLEQFQMDLFRFRCYLASLQGGELPNPKRLLAFASRPTKVAMGRLGIFSVSSFHALVAARTGETGVRRRTQAMSRSASKRRSRFSSLWGLDTTSKKKQGRPSINQVFGEGTEAVKKSLEGIFDDIVPDGKREKEVVLPNVHQHNPDCDIWVHEYFTPSWFCLPNNQPALTVVRPGDTARDTLELICKTHQLDHSAHYLRLKFLIENKMQLYVPQPEEDIYELLYKEIEICPKVTQSIHIEKSDTAADTYGFSLSSVEEDGIRRLYVNSVKETGLASKKGLKAGDEILEINNRAADALNSSMLKDFLSQPSLGLLVRTYPELEEGVELLESPPHRVDGPADLGESPLAFLTSNPGHSLCSEQGSSAETAPEETEGPDLESSDETDHSSKSTEQVAAFCRSLHEMNPSDQSPSPQDSTGPQLATMRQLSDADKLRKVICELLETERTYVKDLNCLMERYLKPLQKETFLTQDELDVLFGNLTEMVEFQVEFLKTLEDGVRLVPDLEKLEKVDQFKKVLFSLGGSFLYYADRFKLYSAFCASHTKVPKVLVKAKTDTAFKAFLDAQNPKQQHSSTLESYLIKPIQRILKYPLLLRELFALTDAESEEHYHLDVAIKTMNKVASHINEMQKIHEEFGAVFDQLIAEQTGEKKEVADLSMGDLLLHTTVIWLNPPASLGKWKKEPELAAFVFKTAVVLVYKDGSKQKKKLVGSHRLSIYEDWDPFRFRHMIPTEALQVRALASADAEANAVCEIVHVKSESEGRPERVFHLCCSSPESRKDFLKAVHSILRDKHRRQLLKTESLPSSQQYVPFGGKRLCALKGARPAMSRAVSAPSKSLGRRRRRLARNRFTIDSDAVSASSPEKESQQPPGGGDTDRWVEEQFDLAQYEEQDDIKETDILSDDDEFCESVKGASVDRDLQERLQATSISQRERGRKTLDSHASRMAQLKKQAALSGINGGLESASEEVIWVRREDFAPSRKLNTEI
partner: B1 chain

Variants of: B1
Settings: with tiam1_human TIAM1, Q13009

effect of a mutation on the interaction | Variant
decreasing interaction strength | MRRAALWLWLCALALSLQPALPQIVATNLPPEDQDGSGDDSDNFSGSGAGALQDITLSQQTPSTWKDTQLLTAIPTSPEPTGLEATAASTSTLPAGEGPKEGEAVVLPEVEPGLTAREQEATPRPRETTQLPTTHLASTTTATTAQEPATSHPHRDMQPGHHETSTPAGPSQADLHTPHTEDGGPSATERAAEDGASSQLPAAEGSGEQDFTFETSGENTAVVAVEPDRRNQSPVDQGATGASQGLLDRKEVLGGVIAGGLVGLIFAVCLVGFMLYRMKKKDEGSYSLEEPKQANGGAYQKPTKQKEFYA [E306K]

Variants of: B2
Settings: with sdc1_human SDC1, P18827

effect of a mutation on the interaction | Variant
decreasing interaction strength | K912E
decreasing interaction strength | K879E

— IntAct's records for PubMed 23395182
